The series deals with the molecule itself. The series can be described thus: cross-linking; cysteine (disulfide) cross-linking in COS-7 lysates, 1 h room temperature, SDS-PAGE under reducing and non-reducing conditions, anti-GFP Western blot.

B1: GFP-labelled CLIP-115 (natural protein)
chain: not shown
notes: CLIP-115 (CAP-Gly domain-containing linker protein 2); Species surmised as rat; source: COS-7, transfected, in lysate; not shown: GFP (monomeric), N-terminal, kept
As to B1, the “stoichiometry N” value turned out to be 2.

For the origin of these results see paper PMC4971492, “Structural basis for misregulation of kinesin KIF21A autoinhibition by CFEOM1 disease mutations” (Scientific Reports, 2016).
